Source: a protein production outcome set (Wang et al. 2014)

Assay: label from the status in PepcDB records

Row | Sequence | protein production
1 | MPAPLRFSSDKPLLLLIDMQQAVDDPSWGPRNHPQAEQACAGLLQAWRARGLPLIHIRHDSVEPNSTYRPGQPGHAFKPEVEPRPGETVIAKQTNSAFIGTGLEALLRANGWLELVVAGVSTSNSVEATVRMAGNLGFAVCLAEDGCFTFDKTDWHGRRRSADEVHAMSLANLDGEYCRVCGSADILAALGNIAGAA | not failed
2 | MNGDDDAKRSGKRLPDQPAKTQRTKGPVSFPSTVSLASLCEEGATASSNLDLLASCSSVQGSEDCDCEGHQPESERRLKRPRQAPWAAEPANQRRPPFDHGNSESIPPAGVQSQGTSASNGTDSSERKSTEATWSRQSVDCSTAEKLAGNLCANQVSAERSGQFYTKVNELLHDLHKERVSRQCRSPHES | failed
3 | MVHETDKDPAPAVGPLASAMPRGNFAASLRSPGAKFLMIGFISLVLLVPLLLVWGLTEERASRAREVSARIANGWGGDQVVNGPYLAVPFDVERRREVDGRTIVDRTTEWALVMPETLQVTADLKTEEKKLSIYSLPVYNGALVLKGRFGQGVLQDLARFAGTPRLDNAILVLSIGDITGIRSSAGVRINGGAVLPFDPGMRDMSVIASRALENNSIRSDAGVHRQIDRNLIESGFDFDIAFSLNGSGSFAVAPAGQTTSFTAKADWPHPGFEGLFLPEVKTVTAADFNASWTIPYLARGIDRVVEGPRLPLSNSLMTINLVEPVKFYQVIARTLKYSIGFISLVFLAVFIVELKGGSVVHWIQYVLTGLALIVFYVLLLALAEHTGFTVAYAAASFSTAALIAFYLGSATRSRRNGLALFSVLAVAYGVMYLVLNEDEYALLAGAVISFIAIAATMFATRKVDWSGAGTAANSEFSSRT | failed
4 | MNKFVKSLLVAGSVAALAACSSSNNDAAGNGAAQTFGGYSVADLQQRYNTVYFGFDKYDITGEYVQILDAHAAYLNATPAAKVLVEGNTDERGTPEYNIALGQRRADAVKGYLAGKGVDAGKLGTVSYGEEKPAVLGHDEAAYSKNRRAVLAY | not failed
5 | MTAVSSPACAIAGKPPMLSMRDIWLRLHRWLALCLGLFLALLGLSGSLLELKGPILRWEVGAQMLQLAPGEHGTLLQQDAWIRAASDAYPQLHKVFGAAPPRQGFLESDNVIVFGALKERPGTGIAMIDPYSGEPRGFFVFEDLWLAKLVALHRSLLLPPAWGSNLVLLYGLALLGSLGSGLYLWWPGRRSWWKAASLRPGSRGNRRLREWHNVAAAWLCLPLLLIAGSGAWLARPDLFTWPGAQPMAIKPLFSAAHGHLLLGTPGAWLAFLCGISLPLLYLTGLLLWWRKRAARRAVQSFKETSHDTP | failed
6 | MPAFSTRHLGAVAAALALTVASPAATASAAPDAPAGLREVMFVGNNWDGTADVIRSTGDFARIGRIDVVPDKAERMAEINADPIKWIYFQAIRNGVGEGHDQLVDDMYSTPDGTSVVVSRPSFADVVSVDLATGDINWRFPVSGYRSDHMAVSPDGTRVAVSASTSNTVHVLDIRTGEQVGSFGTGDKPHENIFTRDGRYIWNMSIGDVNTALDAPWLDWTKGDRRITVVDAKTYRQVKVIDMRQRLDAIGLGDHSDAVRPAVFSPDESKLYFQVSFFNGFFEYDVAGDRITRTKTLPKNPATSEDRTTWVNDSRHHGLSMSPDGARICVAGTMDDYATVVNRDTLEEGPLVPAAKPYWATVSGDGTHCVVSESGADQVTAIDFATGEKSVSVPVGDHPQRVRIGRVAADWTGPSAG | failed
7 | DAFTDQKIRQRYADLPGELHIIELEKDKNGLGLSLAGNKDRSRMSIFVVGINPEGPAAADGRMRIGDELLEINNQILYGRSHQNASAIIKTAPSKVKLVFIRNEDAVNQMA | not failed
8 | MKRFLSIAMALCIGLTMSLDANAKRFGGGKSVGAAPTHQTRQAAPTAPGAPAAAATAGAAGAAGAAAKAGGASRWLGPLAGIAAGGLLASMFMGGGFQGMQIFDILIMAVIAFVIFRFIAARRRKQQEQYAPAGHAPMQREAFEPQQPAGGSIFGGSPAPAARPVINAPAWFNEERFIEAARSHFQSLQQHWDANEMDKIAEFVTPQMLQFLKQERADLGDGFQSTYIDNLQVQLEGVDDRADKTIATLTFSGVSKTSRFDQGEVFSESWNMERAQGDNQPWLVAGIRQNG | failed
9 | MARIIVKNGYLKGGSEKTSAHLNNLVKYIATRDGVEKIKNGRELWHATKKQQTLIGEILREFPDAKEMFEYEDYLANPNRENASEFITIALEQHLDKIGDREKYLDYIANRPRVEKFESHGLFTAGDAPLVLSQVAEEVAAHTGNVWTPIISLRREDAARLDYDNAAAWKALLSSKAMELAENLKIHPDHLKWYGAFHNESHHPHIHMVCYSTDPREGYLTKQGIRKMKSSLANEIFRQELIPLYGEKTQRRDELKEQSAESLRELIRQIKGGVLVSERMEQLLTHLAERLQTVSGKKQYGYLKPELKNVVDEIVDDLAQDSRVSEAYRMWWETKGRIESIYTETPSEPPPLSHCDDFKPIRNMVIQEALLIGNMTFEEPASVETALPEPENDLEMSLSDIEDEEDQEPIDDSVGRPSSDEASAGKESSDSWWTEEYRQAKQYLCGDEDAGVPQDFRKAHELFMAEADKNNPLALYDLGRMSADGLGCEADADAAYGWYEKALVVLHAAEEAKPWKYTEYRIGKMYAAGLGAEQDYLQASDWLTLSADKKYKYAQYSLGGLYYHGKGVEQDHVTAFALYTRSADQSFPYASFELGKMLRDGIGCAKNQQDSDRRFKEAFLGFVSLEEQSHDDKLQYRLGWMLLNGIGTDKDEARAKEYFEKAASVGNPFACYQLAKFILSDEKAQPQDVEKALGYLRKAVEAENPYAAYFLGKLYEKGQHVPQNTAEAMRLYTLSAEQDNEFAAYRLGKLYLDGDGVLKDVESAIRWLTFAADRKNQFAEYALGVLYFKGEDIPKDVPKALEYLKRSAGQGNQFAQYRLGKIYLMGEDVPKDIQTALQFLTAAAEQGNQYAQYTLGKLYLIGKDVPKDKETAVRWFTLSAAQGNIYAQFFLDHIDNFKDPSVLLAGTRLLHHMSRIFADNAPPLKLPGQRTDRKLLRKLREKKQAQGHARDDHEQTMSL | failed
10 | MGYLKNHWWKRWIRRRGCKLAGGPASVGKRTTLVLEERVELGHLRIVPPRLEIGAYSYVRSGTDLSLVASIGRFCSIGSDCFIGQEKHTHPSDWVSSHPFQHTGTALRYEPALSYAEIGHDVWIGHSAMVMEGVKVGTGAIIATRAVVTRDVPPYAIVAGTPAQVIRYRHPPEIIEGLLASRWWELDSAFLTGLPLDR | failed
11 | MDSSREANRKHDAEEKREDEKTSLMEVNLMVVLLSQLSTKKEDENGLEKERRDHVAHEARESRARANKRFMKDTKLMEKRTHVLQPMAKEFRHYRKM | failed
12 | MNILKMKKTGIFLGGVLFGTVGVKILSSDCVKKTCTRATAGALKVKDSVLETTTKIQENVEDILAEAKEINEQEDLSTSKVNVVQDTLKCEQEVLKTETIKTVEDTNSNSIKCEEIKDNVIEEKNSTCTTE | failed
13 | MASDREEFNLCGPTHLTTVDWGNEDHQRCVAACLVQGIYIVEQDRQLKREGTEALASPWWESFNFKLIRHLKDDADFSIFGGIFEYKSLQPDVVDSGVPRYVIAFRGTLTKADSITRDIELDIHIIRNGLHRTSRFEIAMQAVRSMADSVGASSFWLTGHSLGAAMALLAGKTMGKSGVYIKSLLFNPPYVSPPIERIANERVRHGIRFAGSLITAGLALSRTLKQTQQPQQQQLQLQNLTEDPLEALSSWLPNIHVNPGDHLCSEYIGFFEHRGNMEQIGYGAGIVERMAMQHSLGGLLMDAMGVSNAVEVEEPVHVIPSANLIVNKTISEDYKDAHGIHQWWRDDQDLVSHIYMYK | failed
14 | NANLDPKTRVLEHRLLAASSAIAEKLGVSAGDEVLLIRRLRSTGDIPVAILENYLPPAFNDVSLDELEKGGLYDALRSRGVVLKIANQKIGARRAVGEESTLLDIEDGGPLLTVERVALDNSGQVIELGSHCYRPDMYNFETTLVAR | not failed
15 | MAQPERFGRYRVLRRLGSGSFATVWLGHDDLLDTPVAIKVLAENWAHNLDIHQRFVEEARILRQADSEWLVRVHDIGTLPDDRPYFVMTYADRGSVADRIAQGPLPLDEALRLLTEIGQGVTVLHRHGTIHRDIKPSNVLLQSSPVGERVLVADLGFAKSIDGASGFTASAGTPGYMSPEQSVVGGDIDVRADVYSLGAVAYELVTGKRPPSPPVRVPPSRLRPGVPPALDELIMSALSPNRSDRPPDAATFTSRIREIRMSPDLELATPWWQRYRATWTRLVALVATAVAVLGVAPAASASPHLPMMEIYDASGELHVRVPTPWLRQMQLNGWSPRELGLPGGHEPGLLVATDLDAWSDARQSVSGLFAGLFVSDGQSPDLDRLISSGLCSGQPQRQRFTNAHWDGELWQWVDCSPDSSEGDVFTAAVLQHRGQERTLYLEIRQTEHQPQTVAEILDGLRLIS | failed
